Experimental data: patent US20160009824A1 (Merck KGaA, published 2016)

Tests used:
[1] = target: T1, CD20 expressed on cells (human Daudi Burkitt's lymphoma cells); CD20-transfected mouse NS0 cells; human … (human, UniProt P11836 1-297); experiment: flow cytometry on Daudi cells (CD20+, CD52-), detection with TRITC F(ab')2 goat anti-human IgG Fcγ
T1 construct: whole, on cells; SU-DHL4 cells also express CD47 at low levels; also called NS0/CD20
T1 sequence (looked up): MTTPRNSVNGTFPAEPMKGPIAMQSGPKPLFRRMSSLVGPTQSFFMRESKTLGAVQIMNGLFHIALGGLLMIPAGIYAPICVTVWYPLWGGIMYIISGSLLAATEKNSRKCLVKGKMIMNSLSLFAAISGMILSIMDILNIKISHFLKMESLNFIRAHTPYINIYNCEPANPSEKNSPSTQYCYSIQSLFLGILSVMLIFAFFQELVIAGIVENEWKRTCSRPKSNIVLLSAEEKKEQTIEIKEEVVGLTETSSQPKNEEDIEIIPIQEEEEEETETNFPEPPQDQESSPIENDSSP

[2] = target: FcγRIII (CD16) on NK cells (human, UniProt P08637 17-254); experiment: cell-based or functional assay
Sequence of FcγRIII (CD16) on NK cells (P08637 17-254): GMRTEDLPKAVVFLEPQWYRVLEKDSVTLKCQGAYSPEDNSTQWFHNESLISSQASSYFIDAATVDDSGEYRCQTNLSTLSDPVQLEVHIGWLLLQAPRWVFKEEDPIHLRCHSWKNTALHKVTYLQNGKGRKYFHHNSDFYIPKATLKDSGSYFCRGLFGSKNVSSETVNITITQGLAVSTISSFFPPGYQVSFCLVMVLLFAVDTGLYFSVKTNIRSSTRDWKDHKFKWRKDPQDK

[3] = target: T1, CD20 expressed on cells (human Daudi …); experiment: flow cytometry on CD20-expressing cells (Daudi by legend paragraph 36 and paragraph 140; the method paragraph 139 names Ramos), detection with TRITC F(ab')2 goat anti-human IgG Fcγ
[4] = target: T1, CD20 expressed on cells (human Daudi …); experiment: flow cytometry on CD20-transfected NS0 cells, detection with TRITC F(ab')2 goat anti-human IgG Fcγ
[5] = target: T2, CD47 expressed on cells (human U937 histiocytic lymphoma cells; human SU-DHL4 cells; human A431 cells) (human, UniProt Q08722 19-323); experiment: flow cytometry on U937 cells (CD47+, CD20-), detection with TRITC F(ab')2 goat anti-human IgG Fcγ
T2 construct: whole, on cells

B1: anti-CD52/anti-CD20 TetBiAb (bispecific antibody, human IgG1, kappa)
chain: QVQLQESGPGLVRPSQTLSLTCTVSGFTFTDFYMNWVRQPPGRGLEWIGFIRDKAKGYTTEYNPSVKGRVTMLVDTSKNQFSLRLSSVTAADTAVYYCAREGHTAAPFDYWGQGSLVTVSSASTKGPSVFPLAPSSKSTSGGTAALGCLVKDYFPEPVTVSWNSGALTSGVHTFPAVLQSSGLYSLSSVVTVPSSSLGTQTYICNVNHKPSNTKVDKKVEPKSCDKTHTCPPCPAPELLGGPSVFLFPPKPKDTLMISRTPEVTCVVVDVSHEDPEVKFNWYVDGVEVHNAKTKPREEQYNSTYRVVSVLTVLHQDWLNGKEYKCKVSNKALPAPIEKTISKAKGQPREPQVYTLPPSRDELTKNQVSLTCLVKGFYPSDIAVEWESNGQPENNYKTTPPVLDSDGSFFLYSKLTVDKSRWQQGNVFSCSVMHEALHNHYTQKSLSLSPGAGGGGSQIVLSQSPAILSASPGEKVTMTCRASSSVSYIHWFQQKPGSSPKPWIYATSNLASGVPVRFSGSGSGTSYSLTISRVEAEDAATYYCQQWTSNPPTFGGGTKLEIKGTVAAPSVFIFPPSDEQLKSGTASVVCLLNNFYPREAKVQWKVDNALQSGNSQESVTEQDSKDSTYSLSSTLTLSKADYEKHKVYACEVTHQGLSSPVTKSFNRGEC
light: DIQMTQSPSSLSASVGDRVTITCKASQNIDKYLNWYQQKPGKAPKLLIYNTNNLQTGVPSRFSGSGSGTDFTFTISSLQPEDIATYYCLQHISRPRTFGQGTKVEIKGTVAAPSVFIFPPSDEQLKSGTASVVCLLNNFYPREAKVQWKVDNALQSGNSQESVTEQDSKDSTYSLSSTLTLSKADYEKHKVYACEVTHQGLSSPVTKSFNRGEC
heavy: QVQLQQPGAELVKPGASVKMSCKASGYTFTSYNMHWVKQTPGRGLEWIGAIYPGNGDTSYNQKFKGKATLTADKSSSTAYMQLSSLTSEDSAVYYCARSTYYGGDWYFNVWGAGTTVTVSAASTKGPSVFPLAPSSKSTSGGTAALGCLVKDYFPEPVTVSWNSGALTSGVHTFPAVLQSSGLYSLSSVVTVPSSSLGTQTYICNVNHKPSNTKVDKKVEPKSC
notes: Hexameric TetBiAb from Campath and 2B8, IgG1 Fc
binding result [1]: no binding (tested: 100 µg/ml)

B2: anti-CD20/anti-CD16 TetBiAb (bispecific antibody)
chain: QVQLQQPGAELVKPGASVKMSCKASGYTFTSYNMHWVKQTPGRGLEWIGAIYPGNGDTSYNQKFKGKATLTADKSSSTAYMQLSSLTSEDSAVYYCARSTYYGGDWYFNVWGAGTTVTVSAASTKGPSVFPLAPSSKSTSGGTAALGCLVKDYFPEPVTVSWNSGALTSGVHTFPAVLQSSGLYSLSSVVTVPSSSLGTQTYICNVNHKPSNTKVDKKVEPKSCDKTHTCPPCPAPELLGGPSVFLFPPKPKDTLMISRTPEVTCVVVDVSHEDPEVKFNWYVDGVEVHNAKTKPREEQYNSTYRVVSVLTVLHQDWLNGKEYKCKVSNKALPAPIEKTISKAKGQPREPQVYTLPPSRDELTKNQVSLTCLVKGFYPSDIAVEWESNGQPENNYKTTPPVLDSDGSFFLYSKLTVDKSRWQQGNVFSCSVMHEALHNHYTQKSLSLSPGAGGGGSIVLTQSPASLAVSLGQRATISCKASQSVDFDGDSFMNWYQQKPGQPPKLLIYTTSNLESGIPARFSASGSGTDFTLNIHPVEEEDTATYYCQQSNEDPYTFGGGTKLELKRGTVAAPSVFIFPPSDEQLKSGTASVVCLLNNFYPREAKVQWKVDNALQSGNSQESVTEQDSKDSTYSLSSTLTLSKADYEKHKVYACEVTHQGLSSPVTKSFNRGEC
light: QIVLSQSPAILSASPGEKVTMTCRASSSVSYIHWFQQKPGSSPKPWIYATSNLASGVPVRFSGSGSGTSYSLTISRVEAEDAATYYCQQWTSNPPTFGGGTKLEIKRGTVAAPSVFIFPPSDEQLKSGTASVVCLLNNFYPREAKVQWKVDNALQSGNSQESVTEQDSKDSTYSLSSTLTLSKADYEKHKVYACEVTHQGLSSPVTKSFNRGEC
heavy: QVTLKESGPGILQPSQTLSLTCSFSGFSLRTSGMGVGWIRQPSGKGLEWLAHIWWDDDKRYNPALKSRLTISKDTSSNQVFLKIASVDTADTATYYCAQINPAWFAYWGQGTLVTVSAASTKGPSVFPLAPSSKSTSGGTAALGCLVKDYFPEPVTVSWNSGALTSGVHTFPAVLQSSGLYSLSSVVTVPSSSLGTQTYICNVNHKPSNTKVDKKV
notes: Hexameric TetBiAb from 2B8 and 3G8, IgG1 Fc
antibody-dependent cell-mediated cytotoxicity (ADCC), LDH release from Ramos cells with NK effector cells [2]: 10 fold
EC50 (read off the curve) [3]: ~3 µg/mL

B3: anti-CD20/anti-CD47 TetBiAb (bispecific antibody, human IgG1, kappa)
chain: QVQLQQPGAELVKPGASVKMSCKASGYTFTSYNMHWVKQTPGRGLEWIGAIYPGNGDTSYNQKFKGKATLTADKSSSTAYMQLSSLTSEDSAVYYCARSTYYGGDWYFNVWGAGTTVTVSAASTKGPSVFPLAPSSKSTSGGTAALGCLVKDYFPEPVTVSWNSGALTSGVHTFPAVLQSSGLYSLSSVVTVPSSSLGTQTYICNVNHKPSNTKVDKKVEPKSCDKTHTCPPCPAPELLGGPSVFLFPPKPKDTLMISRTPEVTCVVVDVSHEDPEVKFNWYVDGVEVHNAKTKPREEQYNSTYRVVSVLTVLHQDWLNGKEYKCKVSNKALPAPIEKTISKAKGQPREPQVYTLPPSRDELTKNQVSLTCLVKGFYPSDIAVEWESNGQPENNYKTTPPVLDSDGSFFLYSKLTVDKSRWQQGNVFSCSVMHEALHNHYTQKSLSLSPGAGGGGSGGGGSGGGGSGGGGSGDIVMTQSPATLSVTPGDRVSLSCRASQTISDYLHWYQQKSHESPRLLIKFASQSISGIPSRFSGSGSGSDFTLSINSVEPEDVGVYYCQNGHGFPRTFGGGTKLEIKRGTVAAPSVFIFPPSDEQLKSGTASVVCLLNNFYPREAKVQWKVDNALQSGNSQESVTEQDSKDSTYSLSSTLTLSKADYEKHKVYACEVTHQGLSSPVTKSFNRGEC
light: B2 light
heavy: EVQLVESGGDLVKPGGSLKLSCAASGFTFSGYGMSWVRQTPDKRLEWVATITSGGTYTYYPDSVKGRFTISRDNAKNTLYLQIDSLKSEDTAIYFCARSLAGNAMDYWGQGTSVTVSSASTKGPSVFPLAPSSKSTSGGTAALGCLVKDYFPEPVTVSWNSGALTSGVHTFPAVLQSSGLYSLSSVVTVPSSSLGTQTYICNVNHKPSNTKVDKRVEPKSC
notes: Hexameric TetBiAb from 2B8 and B6H12, IgG1 Fc; Alexa 488-labelled in the SU-DHL4 assay
binding result [4]: binds
EC50 (read off the curve) [5]: ~10 µg/mL

B4: anti-CD20/anti-CD52 TetBiAb (bispecific antibody, human IgG1, kappa)
chain: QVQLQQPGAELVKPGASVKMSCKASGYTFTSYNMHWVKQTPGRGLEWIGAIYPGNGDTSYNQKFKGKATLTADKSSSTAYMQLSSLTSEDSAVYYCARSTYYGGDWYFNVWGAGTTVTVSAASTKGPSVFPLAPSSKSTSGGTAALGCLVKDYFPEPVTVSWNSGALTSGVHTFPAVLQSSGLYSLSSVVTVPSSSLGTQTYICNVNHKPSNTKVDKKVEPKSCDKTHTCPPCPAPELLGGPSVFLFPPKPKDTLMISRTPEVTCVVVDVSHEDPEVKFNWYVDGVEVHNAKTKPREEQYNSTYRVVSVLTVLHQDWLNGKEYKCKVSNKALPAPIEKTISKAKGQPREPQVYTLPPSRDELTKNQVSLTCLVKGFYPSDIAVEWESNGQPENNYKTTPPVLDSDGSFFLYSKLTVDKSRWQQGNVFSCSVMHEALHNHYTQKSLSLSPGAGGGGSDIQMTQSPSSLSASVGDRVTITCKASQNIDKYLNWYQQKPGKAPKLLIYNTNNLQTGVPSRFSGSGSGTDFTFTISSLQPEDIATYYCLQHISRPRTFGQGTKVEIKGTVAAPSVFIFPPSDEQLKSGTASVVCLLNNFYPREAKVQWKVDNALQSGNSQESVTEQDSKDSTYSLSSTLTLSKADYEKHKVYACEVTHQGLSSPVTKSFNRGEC
light: B2 light
heavy: QVQLQESGPGLVRPSQTLSLTCTVSGFTFTDFYMNWVRQPPGRGLEWIGFIRDKAKGYTTEYNPSVKGRVTMLVDTSKNQFSLRLSSVTAADTAVYYCAREGHTAAPFDYWGQGSLVTVSAASTKGPSVFPLAPSSKSTSGGTAALGCLVKDYFPEPVTVSWNSGALTSGVHTFPAVLQSSGLYSLSSVVTVPSSSLGTQTYICNVNHKPSNTKVDKKVEPKSC
notes: Hexameric TetBiAb from 2B8 and Campath, IgG1 Fc
EC50 (read off the curve) [1]: ~5 µg/mL
